Measurements reported in patent US20260167699A1 (Chugai, published 2026).

B1: GpH7-A5/GpH7-B3 variant T335_16H/GpL16-k0 (antibody, human IgG1, kappa)
heavy 1: not shown
heavy 2: not shown
light: DIVMTQSPLSLPVTPGEPASISCQASESLVHSNRNTYLHWYLQKPGQSPQLLIYKVSNRFSGVPDRFSGSGSGTDFTLKISRVEAEDVGVYYCSQNTHVPPTFGQGTKVEIERTVAAPSVFIFPPSDEQLKSGTASVVCLLNNFYPREAKVQWKVDNALQSGNSQESVTEQDSKDSTYSLSSTLTLSKADYEKHKVYACEVTHQGLSSPVTKSFNRGEC
notes: copies: 1 + 1 + 2
B2: GpH7-A5/GpH7-B3 variant V266_06M/GpL16-k0 (antibody, human IgG1, kappa)
heavy 1: not shown
heavy 2: not shown
light: B1 light
notes: copies: 1 + 1 + 2
B3: GpH7-A5/GpH7-B3 variant Y296_20W/GpL16-k0 (antibody, human IgG1, kappa)
heavy 1: not shown
heavy 2: not shown
light: B1 light
notes: copies: 1 + 1 + 2
B4: GpH7-A5/GpH7-B3 variant Y300_03V/GpL16-k0 (antibody, human IgG1, kappa)
heavy 1: not shown
heavy 2: not shown
light: B1 light
notes: copies: 1 + 1 + 2
B5: GpH7-A5/GpH7-B3 variant Y296_16H/GpL16-k0 (antibody, human IgG1, kappa)
heavy 1: not shown
heavy 2: not shown
light: B1 light
notes: copies: 1 + 1 + 2
B6: GpH7-A5/GpH7-B3 variant Y296_03V/GpL16-k0 (antibody, human IgG1, kappa)
heavy 1: not shown
heavy 2: not shown
light: B1 light
notes: copies: 1 + 1 + 2
B7: GpH7-A5/GpH7-B3 variant Y300_20W/GpL16-k0 (antibody, human IgG1, kappa)
heavy 1: not shown
heavy 2: not shown
light: B1 light
notes: copies: 1 + 1 + 2
B8: GpH7-A5/GpH7-B3 variant Y296_10E/GpL16-k0 (antibody, human IgG1, kappa)
heavy 1: not shown
heavy 2: not shown
light: B1 light
notes: copies: 1 + 1 + 2
B9: GpH7-A5/GpH7-B3 variant Y296_19Q/GpL16-k0 (antibody, human IgG1, kappa)
heavy 1: not shown
heavy 2: not shown
light: B1 light
notes: copies: 1 + 1 + 2
B10: GpH7-A5/GpH7-B3 variant Y296_18N/GpL16-k0 (antibody, human IgG1, kappa)
heavy 1: not shown
heavy 2: not shown
light: B1 light
notes: copies: 1 + 1 + 2
B11: GpH7-A5/GpH7-B3 variant V266_08L/GpL16-k0 (antibody, human IgG1, kappa)
heavy 1: not shown
heavy 2: not shown
light: B1 light
notes: copies: 1 + 1 + 2
B12: GpH7-A5/GpH7-B3 variant Y300_19Q/GpL16-k0 (antibody, human IgG1, kappa)
heavy 1: not shown
heavy 2: not shown
light: B1 light
notes: copies: 1 + 1 + 2
B13: GpH7-A5/GpH7-B3 variant T335_19Q/GpL16-k0 (antibody, human IgG1, kappa)
heavy 1: not shown
heavy 2: not shown
light: B1 light
notes: copies: 1 + 1 + 2
B14: GpH7-A5/GpH7-B3 variant Y296_14T/GpL16-k0 (antibody, human IgG1, kappa)
heavy 1: not shown
heavy 2: not shown
light: B1 light
notes: copies: 1 + 1 + 2
B15: GpH7-A5/GpH7-B3 variant Y300_06M/GpL16-k0 (antibody, human IgG1, kappa)
heavy 1: not shown
heavy 2: not shown
light: B1 light
notes: copies: 1 + 1 + 2
B16: GpH7-A5/GpH7-B3 variant V266_02A/GpL16-k0 (antibody, human IgG1, kappa)
heavy 1: not shown
heavy 2: not shown
light: B1 light
notes: copies: 1 + 1 + 2
B17: GpH7-A5/GpH7-B3 variant Y296_04F/GpL16-k0 (antibody, human IgG1, kappa)
heavy 1: not shown
heavy 2: not shown
light: B1 light
notes: copies: 1 + 1 + 2
B18: GpH7-A5/GpH7-B3 variant Y300_07I/GpL16-k0 (antibody, human IgG1, kappa)
heavy 1: not shown
heavy 2: not shown
light: B1 light
notes: copies: 1 + 1 + 2
B19: GpH7-A5/GpH7-B3 variant Y300_08L/GpL16-k0 (antibody, human IgG1, kappa)
heavy 1: not shown
heavy 2: not shown
light: B1 light
notes: copies: 1 + 1 + 2
B20: GpH7-A5/GpH7-B3 variant Y296_07I/GpL16-k0 (antibody, human IgG1, kappa)
heavy 1: not shown
heavy 2: not shown
light: B1 light
notes: copies: 1 + 1 + 2
B21: GpH7-A5/GpH7-B3 variant Y296_02A/GpL16-k0 (antibody, human IgG1, kappa)
heavy 1: not shown
heavy 2: not shown
light: B1 light
notes: copies: 1 + 1 + 2
B22: GpH7-A5/GpH7-B3 variant Y296_09D/GpL16-k0 (antibody, human IgG1, kappa)
heavy 1: not shown
heavy 2: not shown
light: B1 light
notes: copies: 1 + 1 + 2
B23: GpH7-A5/GpH7-B3 variant Y300_01G/GpL16-k0 (antibody, human IgG1, kappa)
heavy 1: not shown
heavy 2: not shown
light: B1 light
notes: copies: 1 + 1 + 2
B24: GpH7-A5/GpH7-B3 variant Y300_11K/GpL16-k0 (antibody, human IgG1, kappa)
heavy 1: not shown
heavy 2: not shown
light: B1 light
notes: copies: 1 + 1 + 2
B25: GpH7-A5/GpH7-B3 variant Y300_18N/GpL16-k0 (antibody, human IgG1, kappa)
heavy 1: not shown
heavy 2: not shown
light: B1 light
notes: copies: 1 + 1 + 2
B26: GpH7-A5/GpH7-B3 variant Y300_10E/GpL16-k0 (antibody, human IgG1, kappa)
heavy 1: not shown
heavy 2: not shown
light: B1 light
notes: copies: 1 + 1 + 2
B27: GpH7-A5/GpH7-B3 variant Y296_01G/GpL16-k0 (antibody, human IgG1, kappa)
heavy 1: not shown
heavy 2: not shown
light: B1 light
notes: copies: 1 + 1 + 2
B28: GpH7-A5/GpH7-B3 variant Y296_11K/GpL16-k0 (antibody, human IgG1, kappa)
heavy 1: not shown
heavy 2: not shown
light: B1 light
notes: copies: 1 + 1 + 2
B29: GpH7-A5/GpH7-B3 variant T335_20W/GpL16-k0 (antibody, human IgG1, kappa)
heavy 1: not shown
heavy 2: not shown
light: B1 light
notes: copies: 1 + 1 + 2
B30: GpH7-A5/GpH7-B3 variant T335_18N/GpL16-k0 (antibody, human IgG1, kappa)
heavy 1: not shown
heavy 2: not shown
light: B1 light
notes: copies: 1 + 1 + 2
B31: GpH7-A5/GpH7-B3 variant Y300_16H/GpL16-k0 (antibody, human IgG1, kappa)
heavy 1: not shown
heavy 2: not shown
light: B1 light
notes: copies: 1 + 1 + 2
B32: GpH7-A5/GpH7-B3 variant Y300_13S/GpL16-k0 (antibody, human IgG1, kappa)
heavy 1: not shown
heavy 2: not shown
light: B1 light
notes: copies: 1 + 1 + 2
B33: GpH7-A5/GpH7-B3 variant Y296_13S/GpL16-k0 (antibody, human IgG1, kappa)
heavy 1: not shown
heavy 2: not shown
light: B1 light
notes: copies: 1 + 1 + 2
B34: GpH7-A5/GpH7-B3 variant Y296_12R/GpL16-k0 (antibody, human IgG1, kappa)
heavy 1: not shown
heavy 2: not shown
light: B1 light
notes: copies: 1 + 1 + 2
B35: GpH7-A5/GpH7-B3 variant Y300_14T/GpL16-k0 (antibody, human IgG1, kappa)
heavy 1: not shown
heavy 2: not shown
light: B1 light
notes: copies: 1 + 1 + 2
B36: GpH7-A5/GpH7-B3 variant Y300_04F/GpL16-k0 (antibody, human IgG1, kappa)
heavy 1: not shown
heavy 2: not shown
light: B1 light
notes: copies: 1 + 1 + 2
B37: GpH7-A5/GpH7-B3 variant V266_07I/GpL16-k0 (antibody, human IgG1, kappa)
heavy 1: not shown
heavy 2: not shown
light: B1 light
notes: copies: 1 + 1 + 2
B38: GpH7-A5/GpH7-B3 variant Y296_08L/GpL16-k0 (antibody, human IgG1, kappa)
heavy 1: not shown
heavy 2: not shown
light: B1 light
notes: copies: 1 + 1 + 2
B39: GpH7-A5/GpH7-B3 variant Y296_06M/GpL16-k0 (antibody, human IgG1, kappa)
heavy 1: not shown
heavy 2: not shown
light: B1 light
notes: copies: 1 + 1 + 2
B40: GpH7-A5/GpH7-B3 variant Y300_02A/GpL16-k0 (antibody, human IgG1, kappa)
heavy 1: not shown
heavy 2: not shown
light: B1 light
notes: copies: 1 + 1 + 2
B41: GpH7-A5/GpH7-B3 variant Y300_09D/GpL16-k0 (antibody, human IgG1, kappa)
heavy 1: not shown
heavy 2: not shown
light: B1 light
notes: copies: 1 + 1 + 2
B42: GpH7-A5/GpH7-B3 variant H268_05P/GpL16-k0 (antibody, human IgG1, kappa)
heavy 1: not shown
heavy 2: not shown
light: B1 light
notes: He Ab; copies: 1 + 1 + 2
B43: GpH7-A5/GpH7-B3 variant A327_05P/GpL16-k0 (antibody, human IgG1, kappa)
heavy 1: not shown
heavy 2: not shown
light: B1 light
notes: He Ab; copies: 1 + 1 + 2
B44: GpH7-A5/GpH7-B3 variant A327_06M/GpL16-k0 (antibody, human IgG1, kappa)
heavy 1: not shown
heavy 2: not shown
light: B1 light
notes: He Ab; copies: 1 + 1 + 2

The binders below were run against T1, FcγRIIIa (human, UniProt P08637 17-208) (assay: SPR (Biacore);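 note: antibody variants captured on an SPR sensor chip, with FcγRIIIa passed over as analyte in HBS-EP+ buffer at 25 °C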).
T1 construct: extracellular domain; also called 3a; FcγRIIIa extracellular domain
T1 sequence (P08637 other isoform, or with tags, fused parts or gaps): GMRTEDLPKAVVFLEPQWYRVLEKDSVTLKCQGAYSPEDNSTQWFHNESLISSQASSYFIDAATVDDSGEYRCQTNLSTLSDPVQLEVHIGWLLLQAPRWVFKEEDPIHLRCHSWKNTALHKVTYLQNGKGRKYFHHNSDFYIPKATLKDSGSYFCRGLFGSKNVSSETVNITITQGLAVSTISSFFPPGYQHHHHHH

| He/Con 3a | Binder |
| --- | --- |
| 99.3 % of GpH7-A5/GpH7-B3/GpL16-k0 | B1 |
| 84.9 % of GpH7-A5/GpH7-B3/GpL16-k0 | B2 |
| 127 % of GpH7-A5/GpH7-B3/GpL16-k0 | B3 |
| 83.8 % of GpH7-A5/GpH7-B3/GpL16-k0 | B4 |
| 69.1 % of GpH7-A5/GpH7-B3/GpL16-k0 | B5 |
| 69.1 % of GpH7-A5/GpH7-B3/GpL16-k0 | B6 |
| 101 % of GpH7-A5/GpH7-B3/GpL16-k0 | B7 |
| 76.8 % of GpH7-A5/GpH7-B3/GpL16-k0 | B8 |
| 71.4 % of GpH7-A5/GpH7-B3/GpL16-k0 | B9 |
| 67.9 % of GpH7-A5/GpH7-B3/GpL16-k0 | B10 |
| 117 % of GpH7-A5/GpH7-B3/GpL16-k0 | B11 |
| 105 % of GpH7-A5/GpH7-B3/GpL16-k0 | B12 |
| 97.7 % of GpH7-A5/GpH7-B3/GpL16-k0 | B13 |
| 60.7 % of GpH7-A5/GpH7-B3/GpL16-k0 | B14 |
| 106 % of GpH7-A5/GpH7-B3/GpL16-k0 | B15 |
| 56.8 % of GpH7-A5/GpH7-B3/GpL16-k0 | B16 |
| 79.5 % of GpH7-A5/GpH7-B3/GpL16-k0 | B17 |
| 103 % of GpH7-A5/GpH7-B3/GpL16-k0 | B18 |
| 114 % of GpH7-A5/GpH7-B3/GpL16-k0 | B19 |
| 75.8 % of GpH7-A5/GpH7-B3/GpL16-k0 | B20 |
| 66.3 % of GpH7-A5/GpH7-B3/GpL16-k0 | B21 |

| He/Con 3a | Binder |
| --- | --- |
| 89 % of GpH7-A5/GpH7-B3/GpL16-k0 | B22 |
| 88.6 % of GpH7-A5/GpH7-B3/GpL16-k0 | B23 |
| 63.7 % of GpH7-A5/GpH7-B3/GpL16-k0 | B24 |
| 96 % of GpH7-A5/GpH7-B3/GpL16-k0 | B25 |
| 113 % of GpH7-A5/GpH7-B3/GpL16-k0 | B26 |
| 51.3 % of GpH7-A5/GpH7-B3/GpL16-k0 | B27 |
| 53.3 % of GpH7-A5/GpH7-B3/GpL16-k0 | B28 |
| 97.3 % of GpH7-A5/GpH7-B3/GpL16-k0 | B29 |
| 94.4 % of GpH7-A5/GpH7-B3/GpL16-k0 | B30 |
| 102 % of GpH7-A5/GpH7-B3/GpL16-k0 | B31 |
| 80.3 % of GpH7-A5/GpH7-B3/GpL16-k0 | B32 |
| 58.1 % of GpH7-A5/GpH7-B3/GpL16-k0 | B33 |
| 66.5 % of GpH7-A5/GpH7-B3/GpL16-k0 | B34 |
| 92.8 % of GpH7-A5/GpH7-B3/GpL16-k0 | B35 |
| 100 % of GpH7-A5/GpH7-B3/GpL16-k0 | B36 |
| 113 % of GpH7-A5/GpH7-B3/GpL16-k0 | B37 |
| 72.4 % of GpH7-A5/GpH7-B3/GpL16-k0 | B38 |
| 74.6 % of GpH7-A5/GpH7-B3/GpL16-k0 | B39 |
| 88.1 % of GpH7-A5/GpH7-B3/GpL16-k0 | B40 |
| 104 % of GpH7-A5/GpH7-B3/GpL16-k0 | B41 |

These binders were tested against T2, FcγRIIIa extracellular domain, C-terminal His tag (human, UniProt P08637 17-208) (assay: SPR, binding activity relative to GpH7-A5/GpH7-B3/GpL16-k0 (=100)).
T2 construct: extracellular domain; also called 3a
T2 sequence (P08637 other isoform, or with tags, fused parts or gaps): as above

| He/Con 3a | Binder |
| --- | --- |
| 75.6% | B42 |
| 61.9% | B43 |
| 54% | B44 |
